The record followed here is article PMC8201801 (Proceedings of the National Academy of Sciences of the …, 2021).

The target of this experiment is T1, Canine parvovirus (CPV) capsid (Canine parvovirus type 2 (CPV-2), …).
T1 chain: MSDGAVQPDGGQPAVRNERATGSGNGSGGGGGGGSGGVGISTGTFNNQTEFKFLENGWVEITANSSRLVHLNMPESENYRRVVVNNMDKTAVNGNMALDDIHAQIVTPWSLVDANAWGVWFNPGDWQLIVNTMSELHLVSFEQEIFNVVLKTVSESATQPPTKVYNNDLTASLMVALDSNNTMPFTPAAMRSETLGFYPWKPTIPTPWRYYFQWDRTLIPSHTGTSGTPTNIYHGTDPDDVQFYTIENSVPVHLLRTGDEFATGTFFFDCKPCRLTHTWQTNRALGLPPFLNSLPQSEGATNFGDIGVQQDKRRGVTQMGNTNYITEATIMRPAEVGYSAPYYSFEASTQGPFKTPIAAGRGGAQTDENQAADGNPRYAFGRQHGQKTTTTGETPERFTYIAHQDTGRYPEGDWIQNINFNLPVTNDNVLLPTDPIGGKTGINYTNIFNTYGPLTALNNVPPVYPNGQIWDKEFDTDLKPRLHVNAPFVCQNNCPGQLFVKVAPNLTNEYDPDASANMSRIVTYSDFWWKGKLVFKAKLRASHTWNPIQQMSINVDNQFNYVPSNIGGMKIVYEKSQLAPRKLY
The experiment in a line: cryo-EM structure.

B1: Fab of MAb 14 (Fab 14) (Fab, V domains shown)
VH: AVHLQGTELVKPGASAGVKLSCKASGYTFTNYDMNWVRQRPEQGLEWIGWIFPGDGSTRYNEKFKGKATLTTDKSSSTAYQLNRLTSEDSAVYFCARRGSHGSYSFAYWGQGTLVTVSG
VL: DIVMTQSHKFMSTSVGDRVSITCKASQDVNTALAWYQQIPGQSPKLLIYSASNRYTGVPDRFTASGSGTDFTFTISSVQAEDLALYYCQQHYTTPWTFGGGTKLEIK
The term stoichiometry N denotes a count of units in the complex or per binding partner. With B1, the “stoichiometry N” value is roughly 60 Fab per capsid.
